B1: peptide HD2 (from tick evasin EVA4) / CCL18 (biotinylated, synthetic) (parent complex)
chain 1: EEDDYTAYAPLTCYFT
chain 2: AQVGTNKELCCLVYTSWQIPQKFIVDYSETSPQCPKPGVILLTKRGRQICADPNKKWVQKYISDLKLNA

Variants of: B1

Compared with chain 1 D3I, chain 1 D3L is higher in enrichment: -2.12 log2 (difference from the parental peptide) for the first, -2.02 log2 (difference from the parental peptide) for the second.

First: chain 1 D3A
Second: chain 1 D3E
The enrichment of the first is lower: -0.703 log2 (difference from the parental peptide) for the first, 0.978 log2 (difference from the parental peptide) for the second.

Going from chain 1 D3R to chain 1 T12F, the enrichment rises from -3.26 log2 (difference from the parental peptide) to -0.316 log2 (difference from the parental peptide).

Going from chain 1 T12S to chain 1 T12A, the enrichment rises from -1.43 log2 (difference from the parental peptide) to -0.729 log2 (difference from the parental peptide).

First: chain 1 T12E
Second: chain 1 A9N
The enrichment of the first is higher: -0.867 log2 (difference from the parental peptide) for the first, -5.05 log2 (difference from the parental peptide) for the second.

First: chain 1 A9Q
Second: chain 1 A9M
The enrichment of the first is higher: -0.732 log2 (difference from the parental peptide) for the first, -4.18 log2 (difference from the parental peptide) for the second.

Compared with chain 1 A9F, chain 1 A7Y is higher in enrichment: -8.36 log2 (difference from the parental peptide) for the first, -0.717 log2 (difference from the parental peptide) for the second.

Going from chain 1 A7Q to chain 1 A7T, the enrichment falls from 2.05 log2 (difference from the parental peptide) to -0.452 log2 (difference from the parental peptide).

Compared with chain 1 A7I, chain 1 A7M is higher in enrichment: -0.489 log2 (difference from the parental peptide) for the first, 2.23 log2 (difference from the parental peptide) for the second.

First: chain 1 Y5D
Second: chain 1 Y5I
The enrichment of the first is lower: -3.92 log2 (difference from the parental peptide) for the first, -3.26 log2 (difference from the parental peptide) for the second.

Going from chain 1 Y5Q to chain 1 Y5V, the enrichment falls from -2.39 log2 (difference from the parental peptide) to -3.13 log2 (difference from the parental peptide).

Compared with chain 1 Y5L, chain 1 P10F is lower in enrichment: -0.851 log2 (difference from the parental peptide) for the first, -9.61 log2 (difference from the parental peptide) for the second.

First: chain 1 P10V
Second: chain 1 P10D
The enrichment of the first is lower: -8.99 log2 (difference from the parental peptide) for the first, -2.21 log2 (difference from the parental peptide) for the second.

First: chain 1 P10L
Second: chain 1 E1P
The enrichment of the first is lower: -9.7 log2 (difference from the parental peptide) for the first, -2.16 log2 (difference from the parental peptide) for the second.

Going from chain 1 E1Y to chain 1 E1I, the enrichment rises from -1.67 log2 (difference from the parental peptide) to -1.17 log2 (difference from the parental peptide).

Going from chain 1 E1R to chain 1 E1L, the enrichment rises from -3.04 log2 (difference from the parental peptide) to -1.91 log2 (difference from the parental peptide).

First: chain 1 E2V
Second: chain 1 E2N
The enrichment of the first is higher: -1.58 log2 (difference from the parental peptide) for the first, -3.02 log2 (difference from the parental peptide) for the second.

Going from chain 1 E2S to chain 1 E2D, the enrichment rises from -2.49 log2 (difference from the parental peptide) to -0.0115 log2 (difference from the parental peptide).

Compared with chain 1 E2K, chain 1 L11C is higher in enrichment: -3.34 log2 (difference from the parental peptide) for the first, 1.6 log2 (difference from the parental peptide) for the second.

Compared with chain 1 L11K, chain 1 L11S is higher in enrichment: -1.3 log2 (difference from the parental peptide) for the first, -0.148 log2 (difference from the parental peptide) for the second.

First: chain 1 L11N
Second: chain 1 L11R
The enrichment of the first is lower: -3.89 log2 (difference from the parental peptide) for the first, -0.679 log2 (difference from the parental peptide) for the second.

Going from chain 1 T6F to chain 1 T6W, the enrichment rises from -2.21 log2 (difference from the parental peptide) to 0.931 log2 (difference from the parental peptide).

Compared with chain 1 T6I, chain 1 T6S is higher in enrichment: -4.4 log2 (difference from the parental peptide) for the first, 2.9 log2 (difference from the parental peptide) for the second.

Compared with chain 1 Y8Q, chain 1 Y8P is higher in enrichment: -6.56 log2 (difference from the parental peptide) for the first, -3.81 log2 (difference from the parental peptide) for the second.

Going from chain 1 Y8D to chain 1 Y8G, the enrichment rises from -6.74 log2 (difference from the parental peptide) to -6.32 log2 (difference from the parental peptide).

Compared with chain 1 Y8V, chain 1 Y8F is higher in enrichment: -2.87 log2 (difference from the parental peptide) for the first, 2.01 log2 (difference from the parental peptide) for the second.

Going from chain 1 F15P to chain 1 F15Q, the enrichment rises from -0.512 log2 (difference from the parental peptide) to -0.376 log2 (difference from the parental peptide).

Compared with chain 1 T16Q, chain 1 T16N is lower in enrichment: 1.05 log2 (difference from the parental peptide) for the first, 0.14 log2 (difference from the parental peptide) for the second.

Compared with chain 1 T16A, chain 1 T16H is lower in enrichment: 1.23 log2 (difference from the parental peptide) for the first, -0.148 log2 (difference from the parental peptide) for the second.

Going from chain 1 T16K to chain 1 T16L, the enrichment rises from -0.439 log2 (difference from the parental peptide) to 0.179 log2 (difference from the parental peptide).

Going from chain 1 T16G to chain 1 C13I, the enrichment falls from 1.32 log2 (difference from the parental peptide) to -5.57 log2 (difference from the parental peptide).

Compared with chain 1 C13R, chain 1 C13N is higher in enrichment: -9.16 log2 (difference from the parental peptide) for the first, -8.4 log2 (difference from the parental peptide) for the second.

Compared with chain 1 D4P, chain 1 D4R is lower in enrichment: -1.34 log2 (difference from the parental peptide) for the first, -2.64 log2 (difference from the parental peptide) for the second.

Compared with chain 1 D4S, chain 1 D4K is lower in enrichment: -2.31 log2 (difference from the parental peptide) for the first, -2.75 log2 (difference from the parental peptide) for the second.

First: chain 1 D4I
Second: chain 1 D4V
The enrichment of the first is higher: -2.18 log2 (difference from the parental peptide) for the first, -3.19 log2 (difference from the parental peptide) for the second.

Going from chain 1 Y14F to chain 1 Y14S, the enrichment falls from 0.0351 log2 (difference from the parental peptide) to -3.46 log2 (difference from the parental peptide).

First: chain 1 Y14M
Second: chain 1 Y14E
The enrichment of the first is higher: -2.78 log2 (difference from the parental peptide) for the first, -4.21 log2 (difference from the parental peptide) for the second.

With chain 1 Y14W the enrichment was -1.23 log2 (difference from the parental peptide).

Source: paper PMC11969024 (2025)
